# Source: US20160040149A1, “Compositions Having Dicamba Decarboxylase Activity and Methods of Use” (priority 2013, published 2016)
# Columns and labels:
# [1] = Saturation mutagenesis of SEQ ID NO:109: dicamba decarboxylation activity of point mutants (CO2 released), fold of backbone (Tables 7, 8, Megatable 1); conditions: decarboxylation activity (CO2 released) of point mutant vs unmutated backbone protein; backbone SEQ ID NO: 109
# [2] = DNA shuffling libraries: 14CO2 capturing assay in 384-well format, fold activity of backbone (Megatable 2); conditions: relative to backbone SEQ ID NO: 133 (DDEC0201)
Molecule,Fold Activity [1],Fold Activity [2]
"133 (protein, Dicamba decarboxylase variant) MAQGKVALEEHFAIPETLQDSAGFVPGDYWKELQHRLLDIQDTRLKLMDAHGIETMILSLAAPAVQAIPDRRKAIEIARRANDFLAEECAKRPDRFLAFAALPLQDPDAATEELQRCVNDLGFVGALVNGFSQEGDGQTPLYYDLPQYRPFWGEVEKLDVPFYLHPRNPLPQDSRIYDGHPWLLGPTWAFAQETAVHALRLMASGLFDEHPRLNIILGHMGEGLPYMMYRIDHRIAWVKLPPRYPAKRRFMDYFNENFHITTSGNFRTQTLIDAILEIGADRILFSTDWPFENIDHAADWFNATSIAEADRVKIGRTNARRLFKLDGA",1.3 fold,1.0 fold
"139 (protein, Dicamba decarboxylase variant) MAQGKVALEEHFAIPETLQDSAGFVPGDYWKELQHRLLDIQDTRLKLMDAHGIETMILSLAAPAVQAIPDRRKAIEIARRANDFLAEECAKRPDRFLAFAALPLQDPDAATEELQRCVNDLGFVGALVNGFSQEGDGQTPLYYDLPQYRPFWGEVEKLDVPFYLHPRNPLPQDSRIYDGHPWLLGPTWAFAQETAVHALRLMASGLFDEHPRLNIILGHMGEGLPYMMYRIDHRIAWVKLPPRYPAKRRFMDYFNENFHITTSGNFRTQTLIDAILEIGADRILFSTDWPFENIDHAADWFNATSIAEADRLKIGRTNARRLFKLDGD",1.4 fold,1.1 fold
"137 (protein, Dicamba decarboxylase variant) MAQGKVALEEHFAIPETLQDSAGFVPGDYWKELQHRLLDIQDTRLKLMDAHGIETMILSLAAPAVQAIPDRRKAIEIARRANDFLAEECAKRPDRFLAFAALPLQDPDAATEELQRCVNTLGFVGALVNGFSQEGDGQTPLYYDLPQYRPFWGEVEKLDVPFYLHPRNPLPQDSRIYDGHPWLLGPTWAFAQETAVHALRLMASGLFDEHPRLNIILGHMGEGLPYMMYRIDHRIAWVHEPPRYPAKRRFMDYFNENFHITTSGNFRTQTLIDAILEIGADRILFSTDWPFENIDHAADWFNATSIAEADRLKIGRTNARRLFKLDGA",1.1 fold,1.4 fold
"138 (protein, Dicamba decarboxylase variant) MAQGKVALEEHFAIPETLQDSAGFVPGDYWKELQHRLLDIQDTRLKLMDAHGIETMILSLAAPAVQAIPDRRKAIEIARRANDFLAEECAKRPDRFLAFAALPLQDPDAATEELQRCVNDLGFVGALVNGFSQEGDGQTPLYYDLPQYRPFWGEVEKLDVPFYLHPRNPLPQDSRIYDGHPWLLGPTWAFAQETAVHALRLMASGLFDEHPRLNIILGHMGEGLPYMMYRIDHRIAWVHEPPRYPAKRRFMDYFNENFHITTSGNFRTQTLIDAILEIGADRILFSTDWPFENIDHAADWFNATSIAEADRLKIGRTNARRLFKLDLD",0.7 fold,1.1 fold
"135 (protein, Dicamba decarboxylase variant) MAQGKVALEEHFAIPETLQDSAGFVPGDYWKELQHRLLDIQDTRLRLMDAHGIETMILSLAAPAVQAIPDRRKAIEIARRANDFLAEECAKRPDRFLAFAALPLQDPDAATEELQRCVNDLGFVGALVNGFSVEGDGQTPLYYDLPQYRPFWGEVEKLDVPFYLHPRNPLPQDSRIYDGHPWLLGPTWAFAQETAVHALRLMASGLFDEHPRLNIILGHLGEGLPYMMYRIDHRIAWVKLPPRYPAKRRFMDYFLENFHITTSGNFRTQTLIDAILEIGADRILFSTDWPFENIDHAADWFNATSIAEADRVKIGRTNARRLFKLDGD",1.5 fold,1.3 fold
"134 (protein, Dicamba decarboxylase variant) MAQGKVALEEHFAIPETLQDSAGFVPGDYWKELQHRLLDIQDTRLKLMDAHGIETMILSLAAPAVQAIPDRRKAIEIARRANDMLAEECAKRPDRFLAFAALPLQDPDAATEELQRCVNDLGFVGALVNGFSQEGDGQTPLYYDLPQYRPFWGEVEKLDVPFYLHPRNPLPQDSRIYDGHPWLLGPTWAFAQETAVHALRLMASGLFDEHPRLNIILGHLGEGLPYMMYRIDHRIAWVHEPPRYPAKRRLMDYFNENFHITTSGNFRTQTLIDAILEIGADRILFSTDWPFENIDHAADWFNATSIAEADRVKIGRTNARRLFKLDGA",1.5 fold,1.1 fold
"136 (protein, Dicamba decarboxylase variant) MAQGKVALEEHFAIPETLQDSAGFVPGDYWKELQHRLLDIQDTRLKLMDAHGIETMILSLAAPAVQAIPDRRKAIEIARRANDFLAEECAKRPDRFLAFAALPLQDPDAATEELQRCVNTLGFVGALVNGFSVEGDGQTPLYYDLPQYRPFWGEVEKLDVPFYLHPRNPLPQDSRIYDGHPWLLGPTWAFAQETAVHALRLMASGLFDEHPRLNIILGHLGEGLPYMMYRIDHRIAWVHEPPRYPAKRRFMDYFNENFHITTSGNFRTQTLIDAILEIGADRILFSTDWPFENIDHAADWFNATSIAEADRVKIGRTNARRLFKLDGA",1.2 fold,1.4 fold
"143 (protein, Dicamba decarboxylase variant) MAQGKVALEEHFAIPETLQDSAGFVPSEYLKELQHRLLDIQDTRLKLMDAHGIETMILSLAAPAVQAIPDRRKAIEIARRANDFLAEECAKRPDRFLAFAALPMQDVDAATEELQRCVNDLGFVGALVNGFSVEGDGQTPLYYDLPQYRPFWGEVEKLDVPFYLHPRNPLPQDSRIYDGHPWLLGPTWAFAQETAVHALRLMASGLFDEHPRLNIILGHMGEGLPYMMYRIDHRIAWVHEPPRYPAKRRFMDYFNENFHITTSGNFRTQTLIDAILEIGADRILFSTDWPFENIDHAADWFNATSIAEADRVKIGRTNARRLFKLDGD",1.2 fold,1.3 fold
"142 (protein, Dicamba decarboxylase variant) MAQGKVALEEHFAIPETLQDSAGFVPGDYWKELQHRLLDIQDTRLKLMDAHGIETMILSLAAPAVQAIPDRRKAIEIARRANDFLAEECAKRPDRFLAFAALPLQDPDAATEELQRTVNDLGFVGALVNGFSQEGDGQTPLYYDLPQYRPFWGEVEKLDVPFYLHPRNPLPQDSRIYDGHPWLLGPTWAFAQETAVHALRLMASGLFDEHPRLNIILGHLGEGLPYMMYRIDHRIAWVHEPPRYPAKRRFMDYFNENFHITTSGNFRTQTLIDAILEIGADRILFSTDWPFENIDHAADWFNATSIAEADRVKIGRTNARRLFKLDLD",1 fold,1.4 fold
"140 (protein, Dicamba decarboxylase variant) MAQGKVALEEHFAIPETLQDSAGFVPGDYWKELQHRLLDIQDTRLKLMDAHGIETMILSLAAPAVQAIPDRRKAIEIARRANDFLAEECAKRPDRFLAFAALPLQDPDAATEELQRCVNDLGFVGALVNGFSQEGDGQTPLYYDLPQYRPFWGEVEKLDVPFYLHPRNPLPQDSRIYDGHPWLLGPTWAFAQETAVHALRLMASGLFDEHPRLNIILGHLGEGLPYMMYRIDHRIAWVHEPPRYPAKRRFMDYFNENFHITTSGNFRTQTLIDAILEIGADRILFSTDWPFENIDHAADWFNATSIAEADRVKIGRTNARRLFKLDGA",1.1 fold,1.1 fold
"141 (protein, Dicamba decarboxylase variant) MAQGKVALEEHFAIPETLNDSAGFVPGDYWKELQHRLLDIQDTRLKLMDAHGIETMILSLAAPAVQAIPDRRKAIEIARRANDMLAEECAKRPDRFLAFAALPLQDPDAATEELQRCVNDLGFVGALVNGFSQEGDGQTPLYYDLPQYRPFWGEVEKLDVPFYLHPRNPLPQDSRIYDGHPWLLGPTWAFAQETAVHALRLMASGLFDEHPRLNIILGHMGEGLPYMMYRIDHRIAWVHEPPRYPAKRRFMDYFNENFHITTSGNFRTQTLIDAILEIGADRILFSTDWPFENIDHAADWFNATSIAEADRVKIGRTNARRLFKLDLD",1.1 fold,0.9 fold
"92 (protein, listed as Chitinophaga pinensis) MARIVTLEEHVSFPEMTALLPEEILKNRKQSGAALQMQEKLADITGERLTSMKAAGISMQVLSVENTDVYLLPDSLAPAFAAKYNDLLADKISSHSDAFAAFAMLPMTVPEAAADELERAVKTHGFCGAMIKGLINGVFLDAPKFAPVFACAEKLGVPLYIHPGIPPKEVIDAYYSNVGDTKGPNEAIACYGWGWHSETAIHILRLLAAGIFDKYPQLNIIIGHMGEMLPMMWERSNRVFQPGNNGKNQRTLIETFRKQLYITTSGIFTQPPLQIAIDTIGIDNILFSIDYPFSSNQMGIDFLTKAALPAEQLAKMAHGNADRILKF",1.7 fold,–
"93 (protein, listed as Mucilaginibacter paludis) MAKYGKHITINKNMRIVTLEEHISFPEMADQIPKAALGSFGRSEAMQRIAPKLADITGERLKSMDANGISMQVLSVDSSGVNLLSPQQGPAFATQYNDLIANRIAGFEKRFTAFAHLPMTAPFAAADELERAVKEHHFCGAMIRGLTGDQFLDHPQFAPIFERAQKLDVPIYLHPGLPPKGVADIYYSGLPNYSGMAEALACYGWGWHSETALHVLRLLFSGIFDQYPKLKLVIGHMGEMLPMMMARSEKAFKPGNGGANVRTLTDTFRSQVYLTTSGFFTQPPLKIALDTFGIDHVMFSVDYPFSTNEMGIEFLNEIDLPDEEVARIAHGNADKLLNLKA",1.6 fold,–
"94 (protein, listed as Bacillus thuringiensis) MANRGDSNMKSLVGVIMGSTSDWETMKYACDILDELNIPYEKKVVSAHRTPDYMFEYAETARERGLKVIIAGAGGAAHLPGMVAAKTNLPVIGVPVQSKALNGLDSLLSIVQMPGGVPVATVAIGKAGSTNAGLLAAQILGSFHDDIHDALELRREAIEKDVREGSELV",1.5 fold,–
"5 (protein, listed as Staphylococcus aureus) MAQNNMEANQMKSITFEEHYVIEDIQKETMNAISADPKGVPMKVMLEGLEKKTGFTNADELSHHDERIQFMNNQDVQIQVLSYGNGSPSNLVGQKAIELCQKANDQLANYIAQYPNRFVGFATLPINEPEAAAREFERCINDLGFKGALIMGRAQDGFLDQDKYDIIFKTAENLGVPIYLHPAPVNSDIYQSYYKGNYPEVTAATFACFGYGWHIDVGIHAIHLVLSGIFDRYPKLNMIIGHWGEFIPFFLERMDEALFAEHLNHPVSYYFKNNFYITPSGMLTKPQFDLVKKEAGIDRILYAADYPYIEPEKLGVFLDELGLTDEEKEKISYTNGAKLLGLSSNN",0.8 fold,–
